Here are results for one substance from patent publication US20250064979A1.

This assay deals with Gag-P3-pol (P3 coiled-coil peptide fused to MMLV Gag-pol) (Moloney murine leukemia virus) (UniProt P03332). As to the kind of experiment: cell-based or functional assay.

“Gag-PE fusion with P4 peptide fused to its C-terminus (construct 1 of FIG. 44A) (from UniProt P03332 1-538)” gave an editing efficiency of PE VLPs of 2 fold.
